Data from IntAct's records for PubMed 18614016.

B1: Tyrosine-protein kinase CSK (Homo sapiens), P41240 (parent)
chain: MSAIQAAWPSGTECIAKYNFHGTAEQDLPFCKGDVLTIVAVTKDPNWYKAKNKVGREGIIPANYVQKREGVKAGTKLSLMPWFHGKITREQAERLLYPPETGLFLVRESTNYPGDYTLCVSCDGKVEHYRIMYHASKLSIDEEVYFENLMQLVEHYTSDADGLCTRLIKPKVMEGTVAAQDEFYRSGWALNMKELKLLQTIGKGEFGDVMLGDYRGNKVAVKCIKNDATAQAFLAEASVMTQLRHSNLVQLLGVIVEEKGGLYIVTEYMAKGSLVDYLRSRGRSVLGGDCLLKFSLDVCEAMEYLEGNNFVHRDLAARNVLVSEDNVAKVSDFGLTKEASSTQDTGKLPVKWTAPEALREKKFSTKSDVWSFGILLWEIYSFGRVPYPRIPLKDVVPRVEKGYKMDAPDGCPPAVYEVMKNCWHLDAAMRPSFLQLREQLEHIKTHELHL

Variants of: B1
Conditions: with src_chick SRC

Variant | effect of a mutation on the interaction
R279A | decreasing interaction
R384A | decreasing interaction
R283A | decreasing interaction
R281A | decreasing interaction
R389A | decreasing interaction
